The values that follow come from patent US20240294650A1.

Test [1] addresses mouse MerTK overexpressed on CHO cells (mouse) (UniProt Q60805). Nature of the test: FACS, CHO-muMerTK OE cells, PE-conjugated control.
Test [2] concerns the target endogenous murine MerTK on bone marrow-derived macrophages (mouse) (UniProt Q60805). Briefly: FACS, mouse BMDM, WT minus MerTK KO.

Chain of mouse MerTK overexpressed on CHO cells (mouse) (Q60805 19-994): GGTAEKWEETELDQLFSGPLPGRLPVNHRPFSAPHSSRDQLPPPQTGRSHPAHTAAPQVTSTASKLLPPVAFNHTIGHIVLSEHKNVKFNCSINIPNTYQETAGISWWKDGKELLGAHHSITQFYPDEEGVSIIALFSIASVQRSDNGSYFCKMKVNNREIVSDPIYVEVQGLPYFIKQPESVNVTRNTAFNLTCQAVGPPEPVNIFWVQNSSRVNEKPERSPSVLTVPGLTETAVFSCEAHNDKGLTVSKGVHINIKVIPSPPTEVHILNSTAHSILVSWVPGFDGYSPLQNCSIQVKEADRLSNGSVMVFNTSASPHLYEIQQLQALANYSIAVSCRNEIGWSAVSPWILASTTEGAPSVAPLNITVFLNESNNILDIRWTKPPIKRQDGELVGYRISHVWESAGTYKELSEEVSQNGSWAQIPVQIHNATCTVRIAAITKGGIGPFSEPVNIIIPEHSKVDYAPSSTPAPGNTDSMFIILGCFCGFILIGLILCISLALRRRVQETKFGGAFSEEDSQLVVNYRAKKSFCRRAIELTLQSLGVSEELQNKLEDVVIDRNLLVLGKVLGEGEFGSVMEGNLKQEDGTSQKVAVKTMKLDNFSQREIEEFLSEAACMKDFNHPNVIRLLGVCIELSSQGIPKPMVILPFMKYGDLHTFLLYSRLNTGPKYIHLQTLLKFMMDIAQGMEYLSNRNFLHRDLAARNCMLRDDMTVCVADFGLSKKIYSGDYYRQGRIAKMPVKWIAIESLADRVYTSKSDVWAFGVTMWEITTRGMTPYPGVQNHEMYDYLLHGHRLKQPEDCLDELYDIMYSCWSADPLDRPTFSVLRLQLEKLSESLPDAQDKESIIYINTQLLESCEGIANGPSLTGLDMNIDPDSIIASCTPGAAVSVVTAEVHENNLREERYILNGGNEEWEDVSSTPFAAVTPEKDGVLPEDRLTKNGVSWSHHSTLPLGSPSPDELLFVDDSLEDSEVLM
Chain of endogenous murine MerTK on bone marrow-derived macrophages (mouse) (Q60805 19-994): as above

Take “rat anti-mouse MerTK monoclonal antibody DS5MMER”: the MFI in test [1] was determined as 3500 MFI; in test [2], 2800 MFI.
